Experimental data from US20100266576A1 (CENTRE NATIONAL DE LA RECHERCHE SCIENT, published 2010).
Blank lines part the entries; values can stand above or below the binder they belong to.

Legend:
[1] = biological target: T1, amyloid β peptide 42 (Aβ42); experiment: immunohistochemistry on human AD brain sections
T1 construct: Synthetic peptide bought from Bachem, used as monomer/oligomer mixtures after incubation at 37 C; also called Aβ42 monomer; Aβ42 oligomers
Description: Immunostaining of brain tissue was performed on […] thick paraffin sections. Sections were de-paraffinized in xylene, rehydrated through ethanol
(100%, 96%, and 90%) and finally brought to water. They were incubated in 90% formic acid, washed again in water, quenched for endogenous peroxidase with 3% hydrogen peroxyde and 20% methanol, and finally washed in water. Non-specific binding was blocked by incubating the sections for 10 minutes in 2% bovine serum albumin in TBS+0.5% Tween. Appropriate dilutions of primary antibodies were then applied overnight in a humidified chamber at room temperature (typically 1 μg/ml for VHH, and 1:200 for 6F/3D mAb). Slides were washed with TBS-Tween and incubated with secondary antibodies (rabbit anti-His Tag or biotinylated anti-mouse immunoglobulins) in TBS-Tween at room temperature for 2 hours. Slides were then incubated with either peroxidase goat anti-rabbit immunoglobulins or streptavidine-peroxidase fusions, and developed with diaminobenzidine (DAB) for 2 minutes. After washing with TBS-Tween, slides were counter-stained with hematoxylin and eosin.

[2] = biological target: T2, peptide Aβ 29-40; experiment: competition ELISA in solution (Friguet method)
T2 construct: Bought from Bachem; also called Aβ42 fragment 29-40
T2 peptide: GAIIGLMVGGVV
Description: (§1) Binding affinity of VHH antibodies was determined as described in Friguet et al., (1985). Various concentrations of Aβ peptides were incubated in solution overnight at 4° C. with a known quantity of VHH antibody until equilibrium was reached. The VHH antibody concentration used was determined by preliminary ELISA calibrations. Each mixture (100 μl) was transferred to a well of a microtiter plate previously coated with antigen and was incubated for 20 min at 4° C. The plates were washed with buffer A and free VHH antibodies were detected by adding β-galactosidase-conjugated goat anti-rabbit Igs (Biosys, Compiegne, France) and 4-methylumbelliferyl β-D galactoside (Sigma). Fluorescence was read (Fluoroskan, Labsystem, Finland) at 460 nm, after excitation at 355 nm. KD was estimated from the slope of the regression curve obtained by plotting the reciprocal of the fraction of bound antibody versus the reciprocal of the molar concentration of antigen.

[3] = biological target: T3, peptide Aβ 33-42; experiment: competition ELISA in solution (Friguet method)
T3 construct: Bought from Bachem; also called Aβ42 fragment 33-42
T3 peptide: GLMVGGVVIA
Description: as §1

[4] = biological target: T4, Aβ42 fragment 1-11; experiment: competition ELISA for KD (Friguet method) with Aβ fragment peptides
T4 construct: Bought from Bachem; also called Aβ 1-11; printed as fragment 1-10 in the result sentence
T4 peptide: DAEFRHDSGYE
Description: as §1

[5] = biological target: T5, Aβ42 fragment 10-20; experiment: as above
T5 construct: Bought from Bachem; also called Aβ 10-20
T5 peptide: YEVHHQKLVFF
Description: as §1

[6] = biological target: T6, Aβ42 fragment 22-35; experiment: as above
T6 construct: Bought from Bachem; also called Aβ 22-35
T6 peptide: EDVGSNKGAIIGLM
Description: as §1

[7] = biological target: T7, Aβ42 fragment 15-25; experiment: as above
T7 construct: Bought from Bachem; also called Aβ 15-25
T7 peptide: QKLVFFAEDVG
Description: as §1

T1 sequence (peptide, as listed by the source): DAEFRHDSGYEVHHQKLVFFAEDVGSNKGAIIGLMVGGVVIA

binding result [1]: binds
B1: VHH 61-3 (VHH)
VHH: EVQLQASGGGLVQAGGSLRLSCAASGSTFRINRMGWYRQAPGKQRELVASINSGGSTNYADSVKGRFTISRDNAKGTVNLTMNSLKPEDTAVYYCNRVTPWPYWGQGTQVTVS
notes: Expressed from pET22 and purified by Ni-NTA; also called CNCM I-2933

Kd [2]: 20 nM | Kd [3]: 20 nM | binding result [4]: no binding | binding result [5]: no binding | binding result [6]: no binding | binding result [7]: no binding
B2: VHH V31-1 (VHH)
VHH: EVQLQASGGGSVQPGGSLRLSCAASGFIFGWSTMSWVRQAPGKGLEWVSTISGGGSATTYTDSVKGRFTISRDRAKNTLYLQMNSLKPEDTAIYYCNADVSTGFRYQRKDYWGRGTQVTVS
notes: Camelid VHH subcloned from pHEN1 into pET22, expressed in the E. coli periplasm and purified by Ni-NTA IMAC; It was detected with anti-c-myc or anti-His tag antibodies; also called VHH V31-1 antibody; CNCM I-2936
